The values below come from patent publication US11419948B2, “Functionalized microgels with fibrin binding elements” (Georgia Tech Research Corporation, priority 2013, dated 2022).

The target of assay [1] is T1, fibrin clots (Homo sapiens, UniProt P02671+P02675+P02679).
T1 sequence (P02671 36-866 limits assumed): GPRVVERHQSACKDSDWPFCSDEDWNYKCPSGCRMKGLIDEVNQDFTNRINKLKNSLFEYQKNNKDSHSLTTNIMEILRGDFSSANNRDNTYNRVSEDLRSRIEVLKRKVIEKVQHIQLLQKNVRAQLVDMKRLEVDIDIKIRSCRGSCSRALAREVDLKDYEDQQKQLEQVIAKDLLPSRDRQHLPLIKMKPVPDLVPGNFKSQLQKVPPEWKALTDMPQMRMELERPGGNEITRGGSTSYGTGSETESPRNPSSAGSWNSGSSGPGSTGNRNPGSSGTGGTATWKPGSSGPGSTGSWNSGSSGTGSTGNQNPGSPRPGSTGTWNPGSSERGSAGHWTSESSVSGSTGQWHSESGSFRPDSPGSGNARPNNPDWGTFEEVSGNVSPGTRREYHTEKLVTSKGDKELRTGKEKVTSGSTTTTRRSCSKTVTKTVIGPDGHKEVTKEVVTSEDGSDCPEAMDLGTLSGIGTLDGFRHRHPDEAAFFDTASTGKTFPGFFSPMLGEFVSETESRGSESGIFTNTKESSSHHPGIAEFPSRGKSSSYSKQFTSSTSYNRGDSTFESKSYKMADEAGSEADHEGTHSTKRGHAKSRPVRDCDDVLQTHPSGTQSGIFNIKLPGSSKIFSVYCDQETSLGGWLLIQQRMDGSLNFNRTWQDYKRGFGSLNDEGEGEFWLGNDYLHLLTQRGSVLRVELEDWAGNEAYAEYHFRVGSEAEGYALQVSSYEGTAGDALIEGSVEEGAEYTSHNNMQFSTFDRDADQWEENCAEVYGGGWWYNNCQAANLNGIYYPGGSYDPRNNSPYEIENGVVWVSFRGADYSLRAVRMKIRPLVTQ
T1 sequence (P02675 45-491 limits assumed): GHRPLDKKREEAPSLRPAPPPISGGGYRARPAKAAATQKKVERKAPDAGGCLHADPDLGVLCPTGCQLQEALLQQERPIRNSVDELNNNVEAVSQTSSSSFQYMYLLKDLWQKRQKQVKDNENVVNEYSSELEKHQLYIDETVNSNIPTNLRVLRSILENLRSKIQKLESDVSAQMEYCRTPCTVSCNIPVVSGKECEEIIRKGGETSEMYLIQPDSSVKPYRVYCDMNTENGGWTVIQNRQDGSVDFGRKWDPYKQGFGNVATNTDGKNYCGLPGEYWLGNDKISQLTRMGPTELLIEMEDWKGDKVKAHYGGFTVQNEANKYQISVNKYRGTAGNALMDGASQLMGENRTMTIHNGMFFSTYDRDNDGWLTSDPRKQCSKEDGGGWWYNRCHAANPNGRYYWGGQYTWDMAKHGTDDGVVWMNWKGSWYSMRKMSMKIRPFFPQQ
T1 sequence (P02679 27-453): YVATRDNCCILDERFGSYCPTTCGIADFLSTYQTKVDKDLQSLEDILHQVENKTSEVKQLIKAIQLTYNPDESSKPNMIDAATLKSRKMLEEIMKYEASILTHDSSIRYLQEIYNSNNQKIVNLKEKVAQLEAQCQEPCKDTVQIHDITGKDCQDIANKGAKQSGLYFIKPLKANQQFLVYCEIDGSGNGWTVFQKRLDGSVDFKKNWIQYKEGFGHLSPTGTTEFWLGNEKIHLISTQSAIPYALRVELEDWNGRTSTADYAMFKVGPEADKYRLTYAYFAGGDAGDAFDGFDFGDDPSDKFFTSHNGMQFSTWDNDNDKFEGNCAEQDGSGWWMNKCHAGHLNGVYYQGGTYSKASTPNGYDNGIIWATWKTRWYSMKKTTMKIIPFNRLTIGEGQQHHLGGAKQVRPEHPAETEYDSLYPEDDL
Description: Clot microstructure by confocal microscopy. The format is biochemical. On the set-up: from tissue; host or cells: blood plasma (platelet-rich or platelet-poor). The settings on record: clots formed in presence of particles, compared to control (fibrin-only) clots. An excerpt:
FIGS. 4A and 4B are maximum-intensity confocal images of fibrin clots formed from platelet-rich plasma (PRP) or platelet-poor plasma (PPP) in the absence or presence of PLPs or S11-ULCs. Fibrin, grey; microgels/platelets, circled.
To allow appreciation of the network structure in the presence of saturation, 0.33× exposures and equivalent exposures are shown on the left- and right-hand sides, respectively, of the images for PRP and PLP clots. […] FIG. 4E is a graph showing the calculated spread area of PLPs, natural platelets, S11-ULCs and H6-PS particles within fibrin matrices. (**p<0.01, ***p<0.001).
To further characterize the nature of PLP-fibrin interactions, clot microstructure was analyzed via confocal microscopy by forming clots in the presence or absence of scFv-ULC microgels. […] These clots were highly heterogeneous, containing regions of dense fibrin observed in conjugation with PLPs (FIG. 4A) with the dense features becoming more pronounced over time. These features were very similar to those observed from clots formed in platelet-rich plasma, although occurring on a different time scale.

Assay [2] deals with BSA (Bos taurus, UniProt P02769). Briefly: SPR on BSA surface. The assay is classed as binding. An excerpt:
FIG. 2A is an SPR sensorgram of thin fibrin layer immobilized on surface the SPR channel via NHS/EDC activated carboxylic acid terminated SAM with subsequent injections of fibrinogen (1), ethanolamine quencher (2), HEPES buffer+Tween 20 (3), thrombin (4), and fibrinogen+anti-thrombin+heparin (5). FIGS. 2B-2K are representative SPR sensorgrams of scFvs on fibrin layer (FIGS. 2B-2F) or BSA surface (FIGS. 2G-2K) for clones A2 (FIGS. 2B and 2G), A6 (FIGS. 2C and 2H), H6 (FIGS. 2D and 2I), B3 (FIGS. 2E and 2J), or non-specific control (FIGS. 2F and 2K). Experimental data is shown in black and fits are shown in dotted line.
Based on previous SPR protocols developed in the lab^4, a thin fibrin layer was immobilized on the surface of a gold SPR chip via layer-by-layer deposition of fibrinogen-thrombin-fibrinogen^3. SdFvs were flowed across the fibrin surface and the binding interactions were evaluated and recorded. Additionally, antibody fragment binding interactions with a surface of immobilized fibrinogen was used to investigate the specificity to fibrin. All SPR data was examined and analyzed with Scrubber 2 and Clamp XP (Center for Biomolecular Interactions Analysis, University of Utah). Data simulation curves were generated based on a Langmuir 1:1 binding model assuming only a single ligand-analyte interaction.

Sequence of BSA (P02769 25-607): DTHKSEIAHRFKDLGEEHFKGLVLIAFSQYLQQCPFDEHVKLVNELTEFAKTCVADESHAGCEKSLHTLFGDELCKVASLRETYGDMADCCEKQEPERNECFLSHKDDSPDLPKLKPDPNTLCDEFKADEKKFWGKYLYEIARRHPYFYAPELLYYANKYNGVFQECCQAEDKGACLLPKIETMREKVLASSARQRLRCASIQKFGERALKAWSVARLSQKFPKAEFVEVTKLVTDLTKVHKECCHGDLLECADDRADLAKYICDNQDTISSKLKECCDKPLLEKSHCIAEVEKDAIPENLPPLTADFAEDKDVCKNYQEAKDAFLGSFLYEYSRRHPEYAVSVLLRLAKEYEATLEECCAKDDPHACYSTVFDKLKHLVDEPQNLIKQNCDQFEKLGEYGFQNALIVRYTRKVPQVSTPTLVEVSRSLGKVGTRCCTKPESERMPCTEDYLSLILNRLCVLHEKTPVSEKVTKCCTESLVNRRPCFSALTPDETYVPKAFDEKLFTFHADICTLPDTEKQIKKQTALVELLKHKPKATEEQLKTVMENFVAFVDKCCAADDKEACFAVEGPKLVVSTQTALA

B1: PLPs: ultra-low crosslinked pNIPAm-AAc microgels conjugated to fibrin-specific sdFv H6 (conjugate)
VH: QVQLLESGGGLVQPGGSLRLSCAASGDRFTHNDMGWVRQAPGKGLEWVSTIPTTDGSTYYADSVKGRFTISRDNSKSTLYLQMNSLRAEDTAVYYCATGYMWKAPAYVKYWGQGTLVTVSSAAAEQKLISEEDLNSAAHYTDIG
Take B1: the clot structure entry in assay [1] was “significantly altered clot structure”.

B2: H6: fibrin-specific human sdFv clone from phage biopanning, SEQ ID NO: 1 (protein)
VHH: QVQLLESGGGLVQPGGSLRLSCAASGDRFTHNDMGWVRQAPGKGLEWVSTIPTTDGSTYYADSVKGRFTISRDNSKSTLYLQMNSLRAEDTAVYYCATGYMWKAPAYVKYWGQGTLVTVSSAAAEQKLISEEDLNSAAHYTDIG
Regarding B2, the “binding to BSA” value in assay [2] is on record as “negligible binding”.
